The values that follow come from patent publication US20250382588A1, “CHIMERIC AAV AND USES THEREOF” (priority 2023, published 2025).

The test system of assay [1] is striatal D1 MSNs (striatonigral projection neurons). Kind of assay: Retrograde labeling of striatonigral projection neurons after AAV injection into the SNr. Type of assay: in vivo, mice. The conditions noted are these: for Mean: Table 2, AAVs with capsid and promoter, labeled cells per striatal hemisphere after nigral delivery; for retrograde labeling/infectivity of striatal projection neurons (D1 MSNs), in words: injection into the SNr; for labeled striatonigral projection neurons (FIG. 2C): mean±SEM, n=3 mice, viruses injected into the SNr; for times more EYFP positive/labeled MSNs compared to rAAV2-retro: nigral delivery, hSyn-EYFP. The method, then: To improve efficiency, multiple rounds of mutations of AAV capsids were performed on a series of different serotypes. Mutations were introduced at three sites in the AAV8 capsid protein to make AAV8R, including N385D, insertion of […] (SEQ ID NO: 31) at position 588, and TS711-712IN. Two additional mutations of V183E and N411S were incorporated into the AAV8R12 capsid protein (FIG. 1A). The labeling pattern of the AAV8R12 capsid and G88 promoter combination was determined.
First, the polypeptide fragment RGNLADODYTKTARQAATAD (SEQ ID NO.: 31) was inserted at the N587-R588 position; two other point mutations of the AAV2 Cap protein were made to develop rAAV2-retro. Similar mutations were then placed at equivalent positions for four other AAV serotypes (FIGS. 1A-IC and 25, TABLE 1), AAV1/5/6/8 (FIG. 1A). […] When administered into the SNr, 4.86±0.22 times EYFP positive MSNs in mice infected by AAV8R-hSyn-EYFP were observed as compared to those infected by rAAV2-retro-hSyn-EYFP (FIG. 2A-2C).
Baseline infectivity of rAAV2-retro was approximately 0.2±0.03×10^4 cells per striatal hemisphere (using a hSyn promoter) (TABLE 2). […] Compared to the current standard retrograde AAV, rAAV2-retro, AAV8R12 labeled 7.72±0.78-times more MSNs after nigral delivery (FIG. 2B-2C, TABLE 1). […] The AAV8R12 was generated using the AAV8R plasmid as a template.
Mice were anesthetized with sodium pentobarbital (Nembutal; 80 mg/kg, i.p.), and then placed into a stereotaxic device (KOPF). Eye cream was applied on both corneas to avoid dehydration. The skull above the targeted areas was thinned with a dental drill and carefully removed. Injections were conducted with a 10 μL syringe connected to a 33-Gauge needle (Neuros; Hamilton), using a microsyringe pump (Legato 130, KD Scientific). A total volume of 200 nL virus was injected into the SNr at a speed of 20 nL/min. The coordinates for the SNr were 3.4 mm posterior, 1.3 mm lateral, 4.8 mm ventral to the bregma.
HEK293T cells (ATCC) were co-transfected by calcium phosphate with an AAV vector plasmid, an AAV Rep-Cap plasmid (rAAV2-retro, AAV1R, AAV5R, AAV6R, AAV8R, and AAV8R1-14), and the pAdDeltaF6 helper plasmid (Addgene, 112867) harboring the adenoviral genes required for the AAV life cycle. HEK293T cells grown in 15 cm cell culture dishes were co-transfected with the mixture of three plasmids (1:1:1) at 80% confluency. 48-72 hours post-transfection, cells were collected and resuspended in a buffer containing 150 mM NaCl and 100 mM Tris-HCl (pH 8.0). Cells were lysed by repeated freeze-thaw cycles in liquid nitrogen and a 37° C. water bath. AAV particles were purified and concentrated using Millipore Amicon 100K columns (Merck Millipore, UFC910008). Encapsidated viral DNA was quantitated by qPCR (Thermo Fisher) with primers recognizing the viral WPRE and/or ITR sequences following denaturation of the AAV particles using Proteinase K. Titers were calculated as genome copies per milliliter.
Images were acquired using a confocal microscope (Carl Zeiss, LSM880) and an Axiolmager.Z1 microscope with apotome (Carl Zeiss). Brain structures were identified microscopically and in digital photos using a mouse brain atlas. To analyze the number of EYFP+ cells in the striatum, slices from rostral to caudal striatum were used. Every sixth section was analyzed, and numbers of EYFP+ cells were multiplied by six to acquire the approximate total number and mean number of cells per animal. Images were processed using ImageJ (NIH, USA), and final quantifications were independently performed manually by two blinded experimenters.

Assay [2] deals with MSNs in nucleus accumbens. Kind of assay: Retrograde labeling of accumbal MSNs after delivery into ventral pallidum or lateral hypothalamus. Type of assay: in vivo, mice.

B1: AAV8R12: AAV8R capsid mutant V183E + N411S, SEQ ID NO: 13 (protein)
chain: MAADGYLPDWLEDNLSEGIREWWALKPGAPKPKANQQKQDDGRGLVLPGYKYLGPFNGLDKGEPVNAADAAALEHDKAYDQQLQAGDNPYLRYNHADAEFQERLQEDTSFGGNLGRAVFQAKKRVLEPLGLVEEGAKTAPGKKRPVEPSPQRSPDSSTGIGKKGQQPARKRLNFGQTGDSESEPDPQPLGEPPAAPSGVGPNTMAAGGGAPMADNNEGADGVGSSSGNWHCDSTWLGDRVITTSTRTWALPTYNNHLYKQISNGTSGGATNDNTYFGYSTPWGYFDFNRFHCHFSPRDWQRLINNNWGFRPKRLSFKLFNIQVKEVTQNEGTKTIANNLTSTIQVFTDSEYQLPYVLGSAHQGCLPPFPADVFMIPQYGYLTLNDGSQAVGRSSFYCLEYFPSQMLRTGNSFQFTYTFEDVPFHSSYAHSQSLDRLMNPLIDQYLYYLSRTQTTGGTANTQTLGFSQGGPNTMANQAKNWLPGPCYRQQRVSTTTGQNNNSNFAWTAGTKYHLNGRNSLANPGIAMATHKDDEERFFPSNGILIFGKQNAARDNADYSDVMLTSEEEIKTTNPVATEEYGIVADNLQRGNLADQDYTKTARQAATADVNSQGALPGMVWQNRDVYLQGPIWAKIPHTDGNFHPSPLMGGFGLKHPPPQILIKNTPVPADPPTTFNQSKLNSFITQYSTGQVSVEIEWELQKENSKRWNPEIQYTSNYYKSINVDFAVNTEGVYSEPRPIGTRYLTRN
As to B1, in assay [1] (AAV8R capsid mutants, numbers of labeled neurons per animal), the “Labeling Efficiency in Striatonigral Pathway” value was “+++ (10 k-25 k)”. In addition, in assay [1], the Mean stood at 16026; the “retrograde labeling/infectivity of striatal projection neurons (D1 MSNs), in words” value is listed as “mostly improved efficiency”; the “labeled striatonigral projection neurons (FIG. 2C)” value is listed as 16026±1654; the “times more EYFP positive/labeled MSNs compared to rAAV2-retro” value is 7.72±0.78 times. Further, the “labeling of MSNs in nucleus accumbens” value in assay [2] is reported as “robust labeling”.

B2: AAV8R: AAV8 capsid with N385D, insertion of SEQ ID NO: 31 at position 588 and TS to IN mutation; SEQ ID NO: 1 (protein)
chain: MAADGYLPDWLEDNLSEGIREWWALKPGAPKPKANQQKQDDGRGLVLPGYKYLGPFNGLDKGEPVNAADAAALEHDKAYDQQLQAGDNPYLRYNHADAEFQERLQEDTSFGGNLGRAVFQAKKRVLEPLGLVEEGAKTAPGKKRPVEPSPQRSPDSSTGIGKKGQQPARKRLNFGQTGDSESVPDPQPLGEPPAAPSGVGPNTMAAGGGAPMADNNEGADGVGSSSGNWHCDSTWLGDRVITTSTRTWALPTYNNHLYKQISNGTSGGATNDNTYFGYSTPWGYFDFNRFHCHFSPRDWQRLINNNWGFRPKRLSFKLFNIQVKEVTQNEGTKTIANNLTSTIQVFTDSEYQLPYVLGSAHQGCLPPFPADVFMIPQYGYLTLNDGSQAVGRSSFYCLEYFPSQMLRTGNNFQFTYTFEDVPFHSSYAHSQSLDRLMNPLIDQYLYYLSRTQTTGGTANTQTLGFSQGGPNTMANQAKNWLPGPCYRQQRVSTTTGQNNNSNFAWTAGTKYHLNGRNSLANPGIAMATHKDDEERFFPSNGILIFGKQNAARDNADYSDVMLTSEEEIKTTNPVATEEYGIVADNLQRGNLADQDYTKTARQAATADVNSQGALPGMVWQNRDVYLQGPIWAKIPHTDGNFHPSPLMGGFGLKHPPPQILIKNTPVPADPPTTFNQSKLNSFITQYSTGQVSVEIEWELQKENSKRWNPEIQYTSNYYKSINVDFAVNTEGVYSEPRPIGTRYLTRNL
Turning to B2, in assay [1], the Mean is on record as 10092; the “retrograde labeling/infectivity of striatal projection neurons (D1 MSNs), in words” value was “acquired improved retrograde infectivity”; the “labeled striatonigral projection neurons (FIG. 2C)” value turned out to be 10092±463.9; the “times more EYFP positive/labeled MSNs compared to rAAV2-retro” value worked out at 4.86±0.22 times. In assay [2], the “labeling of MSNs in nucleus accumbens” value was “robust labeling”.
